Results on 16 sequences are retold here after the supplement of paper PMC9170038.

In the data set the test system is MS2 coat protein. Description: apparent KD of MS2 coat protein; higher = weaker reporter binding. The following applies: Eterna round: R107. The method in brief: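 Designed RNA switches, transcribed on-chip from Illumina sequencing clusters, were titrated with SNAP-549-labelled MS2 coat protein from 0.7 or 1.5 nM to 3 µM in twofold steps. The solution was 100 mM Tris-HCl pH 7.5, 80 mM KCl, 4 mM MgCl2, with constant ligand or without it. Apparent KD is the median over each design's normalised cluster binding-curve fits.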

The mark [1] stands for this setting: input ligand: theophylline 20 uM.
Setting [2] is: input ligand: theophylline 2 mM.
The mark [3] stands for this setting: input ligand: tryptophan 2.4 mM.

As to “UCGCUCUGGGUGAAUUCCGGAGAUGUGGAAGGAGCGGACGAAAGUCCAGGUAGGUCGCCAUCGAACAUGAGGAUCACCCAUGUAC [Same State - Arginine A (Freestyle 24)]”, the “apparent KD of MS2 coat protein” value runs as follows: (input ligand: arginine 13.2 mM) 55.8 nM; (input ligand: none) 93.2 nM; under setting [1], 105 nM; under setting [2], 165 nM; under setting [3], 93.7 nM.
Take “UCGUGAGUUUCGGAUACCAGUGUGGUCGAUACAUGAGGAUCACCCAUGUUAGAGGAGGUACACCCUUGGCAGCCGGCUGUGGCGG [hlhmullin]”: the “apparent KD of MS2 coat protein” value (input ligand: arginine 13.2 mM) was determined as 31.4 nM; the “apparent KD of MS2 coat protein” value (input ligand: none) stood at 23.5 nM; the “apparent KD of MS2 coat protein” value under setting [1] was found to be 35.4 nM; the “apparent KD of MS2 coat protein” value under setting [2] is 18.1 nM; the “apparent KD of MS2 coat protein” value under setting [3] worked out at 25 nM.
Take “UCGUGUAUAUCGGAUACCAGUGAAAACGAUACAUGAGGAUCACCCAUGUGAGUUGAUGUACACCCUUGGCAGCUGUAUAUAUCUA [fokullin]”: the “apparent KD of MS2 coat protein” value is, setting by setting: (input ligand: arginine 13.2 mM) 16.1 nM; under setting [1], 22.7 nM; under setting [3], 18.6 nM.
For “UCGUGUAUAUCGGAUACCAGUGAAAUCGAUACAUGAGGAUCACCCAUGUGAGAGGAUGUACACCCUUGGCAGCUGUAUAUAUCUG [ll,lmullin]”, the “apparent KD of MS2 coat protein” value (input ligand: arginine 13.2 mM) amounted to 18 nM, the “apparent KD of MS2 coat protein” value under setting [1] was 25.1 nM and the “apparent KD of MS2 coat protein” value under setting [3] worked out at 20.4 nM.
Regarding “UCUAACAUGAGGAUCACCCAUGUACCGUCCCGAGGACCGGUACGGCCGCCACUCGUCUUGCUAAAACUGAAGUGAUCACAAGCCU [theeternabot_sameState_MS2_Trp_A_2]”, the “apparent KD of MS2 coat protein” value is 25.2 nM (input ligand: arginine 13.2 mM), 30.9 nM under setting [1] and 24.6 nM under setting [2].
Regarding “UGACAUUGCUCAGAUACCAGACGUGAGGAUCACCCACGUGCCAACAUGAGGAUCACCCAUGUCCCUUGGCAGCUGAGCAAUGUCU”, the “apparent KD of MS2 coat protein” value reads like this: (input ligand: arginine 13.2 mM) 12.8 nM; under setting [1], 24.1 nM; under setting [3], 15.5 nM.
With “UGAGAGGGCGGAAGGAGCGACAUGAGGAUCACCCAUGUCUCCCGUUAUGGGAGUUCUUUAGGUCAGGUAGGUCGCCGGCCUCUCA [#1 Exclusion - Arginine B Attempt #10 (Inspired by Omei)]”, the “apparent KD of MS2 coat protein” value runs as follows: (input ligand: arginine 13.2 mM) 94.3 nM; (input ligand: none) 122 nM; under setting [1], 104 nM; under setting [2], 127 nM; under setting [3], 111 nM.
For “UGGCAAGAGGGAAGGAGCGUCAGCUGAGUCACAUGAGGAUCACCCAUGUAGCACAUAGUGUGACAGGUAGGUCGCCCUCUGCCGU [SS-ArgB10]”, in that order: 6.72 nM, 8.82 nM, 10.1 nM, 10.3 nM and 9.62 nM.
For “UGGGAAGGAGGAAGGAGCGCCAUAAGGGUGACAGUCUGGGUACAUGAGGAUCACCCAUGUAGGCAGGUAGGUCGCCUCGCUCUCA [XArg-B15]”, in that order: 26.2 nM, 9.53 nM, 12.8 nM, 14.3 nM and 12.5 nM.
The like results for “UGGGCUGGGUGCGUAAAGGGCCUGGCGCAUCGAGGACCGGUACGGCCGCCACUCGGCUGUACAUGAGGAUCACCCAUGUCAGGGU [#1 Same State - Tryptophan A Attempt #18 (HarryS)]” were, in that order, 45.9 nM, 192 nM, 552 nM, 506 nM and 364 nM.
Regarding “UGGGUCGGAUGAGGAAAUUGUCCGACGUAUCGAGGACCGGUACGGCCGCCACUCGGUUGUACAUGAGGAUCACCCAUGUCAGGGU [#1 Same State - Tryptophan A Attempt #15 (HarryS)]”, the “apparent KD of MS2 coat protein” value by setting is: (input ligand: arginine 13.2 mM) 194 nM; (input ligand: none) 218 nM; under setting [1], 269 nM; under setting [2], 327 nM; under setting [3], 128 nM.
“UGGGUUGGACCAGGAAAUGGUCUGACGCACCGAGGACCGGUACGGCCGCCACUCGGCCGUACAUGAGGAUCACCCAUGUCGGUGU [#1 Same State - Tryptophan A Attempt #13 (HarryS)]”: the “apparent KD of MS2 coat protein” value was determined as 107 nM (input ligand: arginine 13.2 mM); 376 nM (input ligand: none); 486 nM under setting [1]; 1170 nM under setting [2]; 740 nM under setting [3].
On to “UGGUACAUGAGGAUCACCCAUGUUCCAGAUACCAGAUACCCGGUUAUCCCUUGGCAGCUGGUGUUACAUGAGGAUCACCCAUGUU [Exclusion Theophylline A GF16]”, for which the “apparent KD of MS2 coat protein” value by setting is: (input ligand: arginine 13.2 mM) 23.9 nM; (input ligand: none) 30.4 nM; under setting [1], 46 nM; under setting [2], 81.9 nM; under setting [3], 37.2 nM.
On to “UGGUACAUGGCGGCCGCCACUUCACGUAAAAUAAAAGCUUGAGGAUCACCCAAGUAAUAAGUUGGGAGGACCGGGUCAUGUACCU”, for which the “apparent KD of MS2 coat protein” value stood at 19.2 nM (input ligand: arginine 13.2 mM); 19.8 nM (input ligand: none); 27 nM under setting [1]; 24.7 nM under setting [2]; 16.6 nM under setting [3].
For “UGGUAUGUAGGAAGGAGCGCAUACUUCACAUGAGGAUCACCCAUGUCGAGACGUGAGUCAGUGCAGGUAGGUCGCCUAGUUAUGA [Same State - Arginine B (Freestyle 22)]”, in that order: 35.8 nM, 43 nM, 33.4 nM, 28.1 nM and 29 nM.
In the case of “UGGUCCGUCGGAAGGAGCGACAUGAGGAUCACCCAUGUCUCCCGUUAUGGGAGUUCUUUAGGUCAGGUAGGUCGCCGGCGGGUCA [#1 Exclusion - Arginine B Attempt #12 (Inspired by Omei)]”, the “apparent KD of MS2 coat protein” value (input ligand: arginine 13.2 mM) was 91.6 nM; the “apparent KD of MS2 coat protein” value (input ligand: none) amounted to 111 nM; the “apparent KD of MS2 coat protein” value under setting [1] is 209 nM; the “apparent KD of MS2 coat protein” value under setting [2] turned out to be 220 nM; the “apparent KD of MS2 coat protein” value under setting [3] was determined as 144 nM.
